For 13 molecules, peptide exchange yield results are on record in patent US20220153796A1 (IMMATICS BIOTECHNOLOGIES, published 2022).

The chains are these.
B1: ASEQQALHTVQY (peptide)
peptide: ASEQQALHTVQY
B2: ATDLVVLDRY (peptide)
peptide: ATDLVVLDRY
B3: WMFFVINY (peptide)
peptide: WMFFVINY
B4: VTDGSLYEGVAY (peptide)
peptide: VTDGSLYEGVAY
B5: ECDMAFHIY (peptide)
peptide: ECDMAFHIY
B6: NTDNNLAVY (peptide)
peptide: NTDNNLAVY
B7: VVADTKMIEY (peptide)
peptide: VVADTKMIEY
B8: VVDSVGGYLY (peptide)
peptide: VVDSVGGYLY
B9: LMAFFLAVV (peptide)
peptide: LMAFFLAVV
B10: ALCLLLHLL (peptide)
peptide: ALCLLLHLL
B11: KTLVAELLILK (peptide)
peptide: KTLVAELLILK
B12: KLYAWELAF (peptide)
peptide: KLYAWELAF
B13: SAYPQRLEI (peptide)
peptide: SAYPQRLEI

The first experiment deals with HLA-A*01 (human). The experiment can be described thus: UV peptide exchange ELISA. For orientation: An ELISA detects its analyte on a solid surface through an enzyme-linked reagent.
On to B1, for which the peptide exchange yield is greater than 75%. The molecule B2 gave a peptide exchange yield greater than 75%.

As to B3, the peptide exchange yield was in the range of 10 to 20%.

The molecule B4 registered a peptide exchange yield greater than 75%. Still for that read-out and setting: then B5, with greater than 75%; and B6, with greater than 75%. Turning to B7, the peptide exchange yield lay within 10 to 20%. Same read-out and setting: with B8 the figure was greater than 75%.

For the next experiment, the target named is HLA-A*02 (human). The experiment can be described thus: UV peptide exchange ELISA.
B9: the peptide exchange yield lay in the range of 20 to 50%. Still for that read-out and setting: then B10, with 10 to 20%.

The target in another experiment is HLA-A*03 (human). The experiment can be described thus: UV peptide exchange ELISA. From the text: (§1) Candidate peptides for T cell based therapies according to the present invention were further tested for their MHC binding capacity (affinity). The individual peptide-MHC complexes were produced by UV-ligand exchange, where a UV-sensitive peptide is cleaved upon UV-irradiation, and exchanged with the peptide of interest as analyzed. Only peptide candidates that can effectively bind and stabilize the peptide-receptive MHC molecules prevent dissociation of the MHC complexes. To determine the yield of the exchange reaction, an ELISA was performed based on the detection of the light chain (β2m) of stabilized MHC complexes. The assay was performed as generally described in Rodenko et al. (Rodenko et al., 2006).
(§2) 96 well MAXISorp plates (NUNC) were coated over night with 2 ug/ml streptavidin in PBS at room temperature, washed 4× and blocked for 1 h at 37° C. in 2% BSA containing blocking buffer. […] Peptide-MHC monomers of the UV-exchange reaction were diluted 100-fold in blocking buffer. Samples were incubated for 1 h at 37° C., washed four times, incubated with 2 ug/ml HRP conjugated anti-β2m for 1h at 37° C., washed again and detected with TMB solution that is stopped with […]. Absorption was measured at 450 nm.
As for B11, the peptide exchange yield was in the range of 50 to 75%. Same read-out and setting: then B12, with 50 to 75%.

The target in a further experiment is HLA-B*07 (human). The experiment can be described thus: UV peptide exchange ELISA.
Source text: as §1, §2
Regarding B13, the peptide exchange yield is 10 to 20%.
